How the values were obtained:
[1] = test system: F-ZFPcont-meth-NES (ZFPcont fused to human DNMT3a catalytic domain residues 592-909) (synthetic construct); assay: cell_activity; conditions: NARP cells; scale: fold lower CpG methylation than F-ZFPNARP-meth-NES
[2] = test system: F-ZFPNARP-meth-NES (ZFPNARP fused to human DNMT3a catalytic domain residues 592-909) (synthetic construct); assay: cell_activity

| Sequence | activity [1] | activity (% of clones with CpG methylation) ([2]; bisulfite sequencing around site in NARP cybrid cells, CpGs within site protected) | activity ([2]; wt cells, indistinguishable from background, scale: fold lower CpG methylation than on NARP site) |
| --- | --- | --- | --- |
| GCCCGGGCC (double strand) [NARP T8993G mtDNA site] | 6 | 23 | – |
| GCCCTGGCC (double strand) [wild-type mtDNA 8993 site] | – | – | 6 |

Reference: patent US20090186816
